Data taken from paper PMC2602770.
Changes are numbered by the printed parent chain.

T1: GST-AtGRP8 (WT) (Arabidopsis thaliana, UniProt Q03251 1-169)
T1 sequence: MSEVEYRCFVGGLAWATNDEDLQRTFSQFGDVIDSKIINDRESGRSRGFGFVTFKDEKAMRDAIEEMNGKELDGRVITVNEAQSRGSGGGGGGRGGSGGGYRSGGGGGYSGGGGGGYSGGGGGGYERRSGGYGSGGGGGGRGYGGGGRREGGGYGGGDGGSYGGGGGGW

T2: GST-AtGRP8-RQ (Arabidopsis thaliana, UniProt Q03251 1-169, R47Q)
T2 sequence: T1 sequence with R47Q

B1: 7-intron_WT (ssRNA)
RNA: GUUCAGUUUUGUUGGAUUGUUUUGCUGAUCUG
B2: 8-UTR_938 (ssRNA)
RNA: CGUUUGGUUUACUUUUUUGAUGAAACA
B3: 8-UTR_WT (ssRNA)
RNA: GUUUUUGGUUUAGAUUUGGUUUUGUGU
B4: 7-UTR_WT (ssRNA)
RNA: AUUUUGUUCUGGUUCUGCUUUAGAUUUGAUCU
B5: 7-intron_G6mut (ssRNA)
RNA: GUUCAAUUUUAUUAAAUUAUUUUACUGAUCUG
B6: 8-intron_WT (ssRNA)
RNA: CUUCCACGAUUGUUUUUGCUGAUGUGU

Key:
GST-AtGRP8 (WT) [1] = molecular target: T1, GST-AtGRP8 (WT); experiment: EMSA
GST-AtGRP8-RQ = molecular target: T2, GST-AtGRP8-RQ; experiment: EMSA
GST-AtGRP8 (WT) [2] = molecular target: T1, GST-AtGRP8 (WT); experiment: EMSA; remark: listed apart in the source
GST-AtGRP8 (WT) [3] = molecular target: T1, GST-AtGRP8 (WT); experiment: competition

Binder	Kd (GST-AtGRP8 (WT) [1])	Kd (GST-AtGRP8-RQ)	binding signal (GST-AtGRP8 (WT) [2])	binding result (GST-AtGRP8 (WT) [3])
B1	426 nM	3590 nM		
B2			~10 fold lower affinity than 8-UTR_WT	
B3	205 nM	1310 nM		
B4	318 nM	3220 nM		
B5				no binding
B6	1640 nM	22900 nM		
